Results: the supplement of paper PMC10065799, “High-throughput profiling of sequence recognition by tyrosine kinases and SH2 domains using bacterial peptide display” (eLife, 2023)

Each sequence was assayed on c-Src (assay: phosphorylation enrichment, bacterial display (enrichment ratio); higher = better substrate or ligand; peptides without Tyr show the background).
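For SH2 binding enrichment of the phosphorylated peptide, bacterial display in this document: peptide library displayed on the E. coli surface as eCPX fusions, selected cells deep-sequenced, score is each peptide's frequency after selection divided by its frequency in the input.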
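For phosphorylation enrichment, bacterial display in this document: 11-residue human phosphosite peptides and single-mutation variants displayed on the E. coli surface, counted by deep sequencing, each peptide's frequency after selection divided by its frequency in the unselected input library; frequency after pTyr selection over input frequency; kinase dosed for 20-30% of maximal phosphorylation in three min.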

Sequence | phosphorylation enrichment
GEPLSHTRFSL [TFRC_Y20_Y20H] | 0.456
KGPNVCKKTVN [REV3L_Y1156_Y1156C] | 0.54
HDKEFYSVHNK [MET_Y1235_Y1230H_YF] | 0.429
SVIKEYQIRQV [USH2A_Y3623_G3618S] | 0.381
EEDPEYKKKFR [FAM161A_Y278] | 0.642
GIVKAYFVHAR [AIPL1_Y267_R270H_YF] | 0.428
EIRTQDEAMAS [GFAP_Y242_Y242D] | 0.408
RAILDYIASKY [GSTA3_Y74_N73D] | 0.376
INMKEYCKKDF [NTN1_Y490_K489E_YF] | 0.476
DGQVNYEELVQ [CALM1_Y139_F142L] | 0.614
GAPATYEGDAR [CACNA1A_Y1013] | 0.368
IHSGIYFKPES [L2HGDH_Y102_YF] | 1.96
PYYASYPPSPD [GDAP2_Y491_T489A] | 7.56
MWGSDYVQLSR [MAP3K4_Y582] | 1.08
INITIYGKTFH [EFHC1_Y177_R182H] | 0.468
PVQAAYQKVEA [HBB_Y131_V135E] | 0.587
EYLQKYKGFKI [SYNE1_Y6953] | 0.323

Sequence | phosphorylation enrichment
LTQRTYMLENA [GPAA1_Y49_S51L] | 0.479
LEDDMYRKTCT [XPA_Y257] | 0.624
ADRLEYSRTGL [MMUT_Y287_G284R] | 0.459
RALRHYYKLNI [ETV6_Y401] | 0.201
CYSSEYHYVGG [CTSC_Y345_Y340C] | 2.02
MSRFIYSTDFF [NTRK1_Y676_D674Y_YF] | 4.05
KRIETYFSKNF [PLP1_Y50_L46R_YF] | 0.467
RRAKGYPIDLF [ITGB2_Y125_YF] | 1.25
GDKENYGLPQP [BUB1_Y538_N534D] | 0.433
GHMFAYDWISI [BEST1_Y227_L224M_YF] | 1.28
PTEAQYRFIFM [PTPN11_Y511_Q506P_YF] | 0.477
KDKLPYLYDDP [GPX2_Y125_P126L] | 0.455
INPIIYAFVVE [CCR5_Y297_G301V] | 2.59
DMDATYRPMYS [JUP_Y701] | 0.568
YRAPGYREVVI [TNS2_Y673] | 0.419
ASYGPYTRVQS [FOXL2_Y258] | 0.559

These sequences were tested against Grb2 SH2 (UniProt P62993) (assay: SH2 binding enrichment of the phosphorylated peptide, bacterial display (enrichment ratio); higher = better substrate or ligand; peptides without Tyr show the background).
Chain of Grb2 SH2 (P62993 whole entry, looked up): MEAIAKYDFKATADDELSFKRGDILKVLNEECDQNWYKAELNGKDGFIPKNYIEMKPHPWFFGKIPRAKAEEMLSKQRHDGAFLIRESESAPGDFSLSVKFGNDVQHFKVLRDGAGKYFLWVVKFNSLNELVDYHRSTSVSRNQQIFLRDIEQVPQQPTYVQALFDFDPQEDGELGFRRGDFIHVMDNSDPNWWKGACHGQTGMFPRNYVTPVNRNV

Sequence | SH2 binding enrichment
GEPLSHTRFSL [TFRC_Y20_Y20H] | 0.866
KGPNVCKKTVN [REV3L_Y1156_Y1156C] | 1.38
HDKEFYSVHNK [MET_Y1235_Y1230H_YF] | 0.734
SVIKEYQIRQV [USH2A_Y3623_G3618S] | 0.88
EEDPEYKKKFR [FAM161A_Y278] | 1.14
GIVKAYFVHAR [AIPL1_Y267_R270H_YF] | 1.3
EIRTQDEAMAS [GFAP_Y242_Y242D] | 0.811
RAILDYIASKY [GSTA3_Y74_N73D] | 1.06
INMKEYCKKDF [NTN1_Y490_K489E_YF] | 1.01
DGQVNYEELVQ [CALM1_Y139_F142L] | 0.835
GAPATYEGDAR [CACNA1A_Y1013] | 0.893
IHSGIYFKPES [L2HGDH_Y102_YF] | 0.747
PYYASYPPSPD [GDAP2_Y491_T489A] | 0.709
MWGSDYVQLSR [MAP3K4_Y582] | 0.646
INITIYGKTFH [EFHC1_Y177_R182H] | 1.15
PVQAAYQKVEA [HBB_Y131_V135E] | 1.02
EYLQKYKGFKI [SYNE1_Y6953] | 0.854

Sequence | SH2 binding enrichment
LTQRTYMLENA [GPAA1_Y49_S51L] | 0.988
LEDDMYRKTCT [XPA_Y257] | 1.04
ADRLEYSRTGL [MMUT_Y287_G284R] | 0.859
RALRHYYKLNI [ETV6_Y401] | 2.09
CYSSEYHYVGG [CTSC_Y345_Y340C] | 0.884
MSRFIYSTDFF [NTRK1_Y676_D674Y_YF] | 1.14
KRIETYFSKNF [PLP1_Y50_L46R_YF] | 0.949
RRAKGYPIDLF [ITGB2_Y125_YF] | 0.573
GDKENYGLPQP [BUB1_Y538_N534D] | 0.866
GHMFAYDWISI [BEST1_Y227_L224M_YF] | 1.25
PTEAQYRFIFM [PTPN11_Y511_Q506P_YF] | 0.585
KDKLPYLYDDP [GPX2_Y125_P126L] | 0.871
INPIIYAFVVE [CCR5_Y297_G301V] | 0.912
DMDATYRPMYS [JUP_Y701] | 0.747
YRAPGYREVVI [TNS2_Y673] | 1.11
ASYGPYTRVQS [FOXL2_Y258] | 0.86

Each sequence was assayed against SHP2-C SH2 in the same assay as above.

Sequence | SH2 binding enrichment
GEPLSHTRFSL [TFRC_Y20_Y20H] | 0.641
KGPNVCKKTVN [REV3L_Y1156_Y1156C] | 1.48
HDKEFYSVHNK [MET_Y1235_Y1230H_YF] | 0.466
SVIKEYQIRQV [USH2A_Y3623_G3618S] | 0.653
EEDPEYKKKFR [FAM161A_Y278] | 0.904
GIVKAYFVHAR [AIPL1_Y267_R270H_YF] | 1.71
EIRTQDEAMAS [GFAP_Y242_Y242D] | 0.772
RAILDYIASKY [GSTA3_Y74_N73D] | 0.872
INMKEYCKKDF [NTN1_Y490_K489E_YF] | 0.65
DGQVNYEELVQ [CALM1_Y139_F142L] | 0.733
GAPATYEGDAR [CACNA1A_Y1013] | 0.669
IHSGIYFKPES [L2HGDH_Y102_YF] | 0.829
PYYASYPPSPD [GDAP2_Y491_T489A] | 0.579
MWGSDYVQLSR [MAP3K4_Y582] | 0.521
INITIYGKTFH [EFHC1_Y177_R182H] | 0.781
PVQAAYQKVEA [HBB_Y131_V135E] | 0.733
EYLQKYKGFKI [SYNE1_Y6953] | 0.624

Sequence | SH2 binding enrichment
LTQRTYMLENA [GPAA1_Y49_S51L] | 1.06
LEDDMYRKTCT [XPA_Y257] | 0.738
ADRLEYSRTGL [MMUT_Y287_G284R] | 1.14
RALRHYYKLNI [ETV6_Y401] | 1.17
CYSSEYHYVGG [CTSC_Y345_Y340C] | 0.943
MSRFIYSTDFF [NTRK1_Y676_D674Y_YF] | 1.05
KRIETYFSKNF [PLP1_Y50_L46R_YF] | 0.51
RRAKGYPIDLF [ITGB2_Y125_YF] | 0.687
GDKENYGLPQP [BUB1_Y538_N534D] | 0.742
GHMFAYDWISI [BEST1_Y227_L224M_YF] | 1.03
PTEAQYRFIFM [PTPN11_Y511_Q506P_YF] | 0.593
KDKLPYLYDDP [GPX2_Y125_P126L] | 0.682
INPIIYAFVVE [CCR5_Y297_G301V] | 0.73
DMDATYRPMYS [JUP_Y701] | 0.521
YRAPGYREVVI [TNS2_Y673] | 0.889
ASYGPYTRVQS [FOXL2_Y258] | 6.64

Each sequence was assayed against c-Src SH2 in the same assay as above.

Sequence | SH2 binding enrichment
GEPLSHTRFSL [TFRC_Y20_Y20H] | 0.487
KGPNVCKKTVN [REV3L_Y1156_Y1156C] | 1.19
HDKEFYSVHNK [MET_Y1235_Y1230H_YF] | 0.395
SVIKEYQIRQV [USH2A_Y3623_G3618S] | 0.472
EEDPEYKKKFR [FAM161A_Y278] | 0.751
GIVKAYFVHAR [AIPL1_Y267_R270H_YF] | 1.01
EIRTQDEAMAS [GFAP_Y242_Y242D] | 0.575
RAILDYIASKY [GSTA3_Y74_N73D] | 0.746
INMKEYCKKDF [NTN1_Y490_K489E_YF] | 0.574
DGQVNYEELVQ [CALM1_Y139_F142L] | 0.745
GAPATYEGDAR [CACNA1A_Y1013] | 0.649
IHSGIYFKPES [L2HGDH_Y102_YF] | 0.777
PYYASYPPSPD [GDAP2_Y491_T489A] | 1
MWGSDYVQLSR [MAP3K4_Y582] | 0.583
INITIYGKTFH [EFHC1_Y177_R182H] | 0.47
PVQAAYQKVEA [HBB_Y131_V135E] | 1.05
EYLQKYKGFKI [SYNE1_Y6953] | 0.551

Sequence | SH2 binding enrichment
LTQRTYMLENA [GPAA1_Y49_S51L] | 0.747
LEDDMYRKTCT [XPA_Y257] | 0.524
ADRLEYSRTGL [MMUT_Y287_G284R] | 0.517
RALRHYYKLNI [ETV6_Y401] | 1.47
CYSSEYHYVGG [CTSC_Y345_Y340C] | 2.04
MSRFIYSTDFF [NTRK1_Y676_D674Y_YF] | 0.806
KRIETYFSKNF [PLP1_Y50_L46R_YF] | 0.559
RRAKGYPIDLF [ITGB2_Y125_YF] | 0.427
GDKENYGLPQP [BUB1_Y538_N534D] | 0.518
GHMFAYDWISI [BEST1_Y227_L224M_YF] | 1.15
PTEAQYRFIFM [PTPN11_Y511_Q506P_YF] | 0.317
KDKLPYLYDDP [GPX2_Y125_P126L] | 1.04
INPIIYAFVVE [CCR5_Y297_G301V] | 0.402
DMDATYRPMYS [JUP_Y701] | 0.513
YRAPGYREVVI [TNS2_Y673] | 0.633
ASYGPYTRVQS [FOXL2_Y258] | 2.89
